Series [1] has as its target PKR dsRBD (MAGIC factor), Alexa Fluor 488-labeled, not affinity purified (Homo sapiens) (UniProt P19525). Description: pulldown. The settings on record: only 4% of labeled protein able to bind dsRNA.
Series [2] addresses T1, PKR dsRBD (MAGIC factor), Alexa Fluor 488-labeled, affinity purified on dsRNA-agarose (Homo sapiens, UniProt P19525 SEQ:22-205).
T1 chain: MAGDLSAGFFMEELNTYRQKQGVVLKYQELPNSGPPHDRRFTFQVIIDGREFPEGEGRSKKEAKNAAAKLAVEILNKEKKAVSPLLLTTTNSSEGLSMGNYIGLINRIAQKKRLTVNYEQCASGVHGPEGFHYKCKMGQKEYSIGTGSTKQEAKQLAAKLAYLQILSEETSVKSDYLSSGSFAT
Description: EMSA; Kd value only in figure; about 30-fold higher affinity than unpurified labeled protein. The settings on record: tags: N-terminal His6; Alexa Fluor 488 on primary amines; label: Alexa Fluor 647. The text has this:
(§1) MAGIC factor was fluorescently-labeled with Alexa Fluor 488 and then reacted with dsRNA-coupled agarose beads to separate binding, functional protein (eluate) from non-binding, non-functional protein (flow and wash fractions). […] Unlabeled and unpurified fluorescent MAGIC factor and affinity purified fluorescent MAGIC factor were reacted with Alexa Fluor 647-labeled dsRNA and ssRNA and run on a native gel. The gel was visualized in the RNA channel (Ex. 633 nm/Em. 670/30 nm BP), protein channel (Ex. 488 nm/Em. 526 nm SP) and FRET channel (Ex. 488 nm/Em. 670/30nm). […] The dashed lines represent the cutoff after which increasing concentrations of only unpurified MAGIC factor were reacted with dsRNA.

The target of series [3] is T1, PKR dsRBD (MAGIC factor), Alexa Fluor …. The series is described as follows: EMSA; stated to bind specifically to dsRNA; gel result only in figure. The conditions noted are these: tags: N-terminal His6; Alexa Fluor 488 on primary amines; label: Alexa Fluor 647.
From the text: as §1
(Mobility shift assays separate free from complexed probe on a gel.)

Experimental findings from patent publication US20180142284, “MULTIPLEX ANALYSIS OF GENE EXPRESSION IN INDIVIDUAL LIVING CELLS” (THE GENERAL HOSPITAL CORPORATION, published 2018) are described below.

Turning to dsRNA coupled to agarose beads, the binding signal in series [1] came out at 4%.

B1: EMSA dsRNA (dsRNA)
RNA 1: GAGUCCUUCCACGAUACC
RNA 2: GGUAUCGUGGAAGGACUC
modifications: aminoallyl-uridine in labeled strand; sequence printed with T, transcribed as RNA
For B1, the binding result in series [2] is listed as “binds”.

Regarding GAGUCCUUCCACGAUACC (ssRNA, aminoallyl-uridine; sequence printed with T, transcribed as RNA) [EMSA ssRNA], the binding result in series [3] is reported as “no binding”.
